Target: T1, LSR α (Homo sapiens, UniProt Q86X29)
T1 construct: The full-length LSR α, α′, and β clones were reconstructed in pTracer-CMV2 vector; expressed in transfected cells; host or cells: CHO-K1, transient (Fugene), pTracer-CMV2
T1 sequence (Q86X29 1-649): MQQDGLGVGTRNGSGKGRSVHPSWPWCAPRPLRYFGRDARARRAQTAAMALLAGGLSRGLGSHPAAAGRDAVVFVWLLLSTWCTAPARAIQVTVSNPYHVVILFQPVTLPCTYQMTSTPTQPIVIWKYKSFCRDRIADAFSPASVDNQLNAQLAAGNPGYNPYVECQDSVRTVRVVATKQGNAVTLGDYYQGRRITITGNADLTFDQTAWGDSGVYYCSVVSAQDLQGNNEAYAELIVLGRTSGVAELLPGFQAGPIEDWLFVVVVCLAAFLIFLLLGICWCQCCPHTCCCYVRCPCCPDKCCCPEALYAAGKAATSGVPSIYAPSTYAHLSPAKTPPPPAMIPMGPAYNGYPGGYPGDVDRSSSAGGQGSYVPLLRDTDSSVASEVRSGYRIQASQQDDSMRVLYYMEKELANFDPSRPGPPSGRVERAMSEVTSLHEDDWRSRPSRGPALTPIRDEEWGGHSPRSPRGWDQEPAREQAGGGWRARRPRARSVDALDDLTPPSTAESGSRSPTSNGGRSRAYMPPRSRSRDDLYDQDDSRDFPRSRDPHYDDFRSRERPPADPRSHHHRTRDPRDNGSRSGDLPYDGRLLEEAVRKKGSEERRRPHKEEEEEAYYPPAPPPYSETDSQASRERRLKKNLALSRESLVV
Assay: 125I-leptin binding in CHO-K1 cells transiently transfected with LSR α
Assay type: cell-based
Settings: transient transfection with LSR α plasmid; 10 ng/mL 125I-leptin
Method: FIGS. 3A, 3B, 3C, and 3D show the effect of LSR subunit transfection on leptin binding and degradation in CHO-K1 cells. For FIG. 3A, CHO-K1 cells were transfected with increasing concentrations of the α, (□), α′ (▪) or β (◯) LSR plasmid, or vector alone (●) using Fugene transfection reagent. After 48 h, the cells were washed once in PBS and incubated at 37° C. for 2 h with 10 ng/mL of ^125I-leptin in DMEM containing 0.2% (w/v) BSA, 2 mM CaCl2 and 5 mM HEPES, pH 7.4 (Buffer A). The monolayers were washed and lysed with 0.1 N NaOH containing 0.24 mM EDTA, and the lysates were counted. The results are shown as the amount of cell-associated ^125I-leptin. For FIG. 3B, lysates were prepared from CHO-K1 wild type, stable transfectants of vector or LSR α′ subunit, and PLC, and separated on a 10% SDS-polyacrylamide gel under denaturing and reduced conditions. After transfer to nitrocellulose, Western blots were performed using anti-LSR 170 antibody (can also be done with the human equivalent, 93A). […] For FIGS. 3C and 3D, confluent monolayers of stable-transfected cell lines expressing LSR α′ subunit (▪) or vector alone (●) were washed once in PBS and incubated at 37° C. for 2 h with increasing concentrations of ^125I-leptin in Buffer A. The amount of cell-associated (FIG. 3C) and degraded (FIG. 3D) ^125I-leptin was then measured as described herein. […]

leptin: plasma protein of 16 kDa produced by adipocytes; recombinant human or mouse leptin, species depends on the experiment
Leptin binding to CHO-K1 cells: remained at levels similar to those seen with the vector alone
